The values below come from patent US20220332804A1 (CSL INNOVATION, published 2022).

Experiment [1] addresses T1, human complement C2 (human, UniProt P06681 21-752).
T1 construct: Recombinant full-length human C2 with C-terminal 8x His tag, purified from Expi293F supernatant; also called human C2; huC2
T1 sequence: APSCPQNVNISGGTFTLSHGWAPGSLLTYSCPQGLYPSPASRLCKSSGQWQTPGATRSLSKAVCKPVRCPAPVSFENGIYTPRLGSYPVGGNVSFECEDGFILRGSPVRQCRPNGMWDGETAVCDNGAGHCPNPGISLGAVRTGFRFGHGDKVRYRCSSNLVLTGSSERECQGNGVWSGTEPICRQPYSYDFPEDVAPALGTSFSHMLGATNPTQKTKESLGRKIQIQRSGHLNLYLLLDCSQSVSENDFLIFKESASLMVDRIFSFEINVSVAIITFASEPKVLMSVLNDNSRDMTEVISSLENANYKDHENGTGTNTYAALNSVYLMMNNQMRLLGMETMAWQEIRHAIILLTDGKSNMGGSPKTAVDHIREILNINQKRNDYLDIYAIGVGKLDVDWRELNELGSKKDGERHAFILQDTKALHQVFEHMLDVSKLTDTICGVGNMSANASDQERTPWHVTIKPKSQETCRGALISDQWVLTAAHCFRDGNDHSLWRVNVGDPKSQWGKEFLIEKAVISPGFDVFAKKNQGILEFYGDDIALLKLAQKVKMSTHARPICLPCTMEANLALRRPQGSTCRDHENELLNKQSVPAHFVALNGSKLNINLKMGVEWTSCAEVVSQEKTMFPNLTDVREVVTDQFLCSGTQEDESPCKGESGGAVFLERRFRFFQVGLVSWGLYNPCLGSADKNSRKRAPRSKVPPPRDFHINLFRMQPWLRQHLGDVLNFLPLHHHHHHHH
Put plainly: SPR, mAb captured, huC2 analyte, pH 7.3. For orientation: SPR reads the build-up and loss of mass on a sensor chip optically.

The target of experiment [2] is T2, Activated human C2 (huC2a) (human, UniProt P06681 244-752).
T2 construct: domain: C2a; also called human C2a
T2 sequence (looked up): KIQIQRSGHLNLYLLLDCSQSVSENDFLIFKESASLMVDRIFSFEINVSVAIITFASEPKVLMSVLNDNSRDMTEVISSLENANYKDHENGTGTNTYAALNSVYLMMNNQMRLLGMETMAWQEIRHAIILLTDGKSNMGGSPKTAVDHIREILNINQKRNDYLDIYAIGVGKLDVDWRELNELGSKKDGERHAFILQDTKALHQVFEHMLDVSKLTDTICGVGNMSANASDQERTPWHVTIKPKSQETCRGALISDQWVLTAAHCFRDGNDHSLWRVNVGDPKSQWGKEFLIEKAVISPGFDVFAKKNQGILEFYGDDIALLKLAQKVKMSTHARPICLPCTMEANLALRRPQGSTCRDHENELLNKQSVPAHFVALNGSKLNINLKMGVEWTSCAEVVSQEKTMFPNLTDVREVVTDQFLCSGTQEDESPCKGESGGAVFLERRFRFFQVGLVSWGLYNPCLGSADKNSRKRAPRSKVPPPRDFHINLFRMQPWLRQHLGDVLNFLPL
Put plainly: SPR, mAb captured, neutral and acidic pH, 0 to 2 mM CaCl2.
Description: Surface plasmon resonance (SPR, Biacore) was used for all binding affinity analyses. In brief, goat anti-human IgG was directly immobilised onto the carboxymethyl dextran surface of CM5 sensorchips to approximately 12,000 RU using standard NHS/EDC chemistry at pH 5. The immobilised antibody surface was pre-conditioned with ten injections of polyclonal human IgG (Privigen 60 s) prepared at 1 μg/mL. Ligands (anti-C2 mAbs) were captured at the beginning of each cycle as described below. An adjacent spot or flow cell in which only Polyclonal IgG was capture was used as a reference surface. The goat anti-human IgG Fc antibody surface was regenerate in 100 mM H3PO4, injected for 45 seconds at the end of each cycle. Experiments were performed at 37° C. and the flow rate of each experiment was kept constant at 30 μL/min.
The effect of calcium on antibody binding was determined with the addition of calcium chloride to the SPR running buffer. Calcium concentrations ranged from zero (i.e. no added calcium, control) to near physiological levels (0.02, 0.2 and 2 mM CaCl₂.2H₂O, MW 147.02 Da). […]
Purified human C2 zymogen was tested in physiological conditions (pH 7.3) at concentrations ranging from 1.9 to 500 nM and in acidic conditions (pH 6) at concentrations ranging from 3.9 to 2000 nM. […] Analyte association and dissociation were monitored for 180 and 600 seconds, respectively. […]

The target of experiment [3] is T1, human complement C2. Briefly: cell-based or functional assay.
In another experiment the target is T3, human C2 T442A (human, UniProt P06681 21-752).
T3 sequence: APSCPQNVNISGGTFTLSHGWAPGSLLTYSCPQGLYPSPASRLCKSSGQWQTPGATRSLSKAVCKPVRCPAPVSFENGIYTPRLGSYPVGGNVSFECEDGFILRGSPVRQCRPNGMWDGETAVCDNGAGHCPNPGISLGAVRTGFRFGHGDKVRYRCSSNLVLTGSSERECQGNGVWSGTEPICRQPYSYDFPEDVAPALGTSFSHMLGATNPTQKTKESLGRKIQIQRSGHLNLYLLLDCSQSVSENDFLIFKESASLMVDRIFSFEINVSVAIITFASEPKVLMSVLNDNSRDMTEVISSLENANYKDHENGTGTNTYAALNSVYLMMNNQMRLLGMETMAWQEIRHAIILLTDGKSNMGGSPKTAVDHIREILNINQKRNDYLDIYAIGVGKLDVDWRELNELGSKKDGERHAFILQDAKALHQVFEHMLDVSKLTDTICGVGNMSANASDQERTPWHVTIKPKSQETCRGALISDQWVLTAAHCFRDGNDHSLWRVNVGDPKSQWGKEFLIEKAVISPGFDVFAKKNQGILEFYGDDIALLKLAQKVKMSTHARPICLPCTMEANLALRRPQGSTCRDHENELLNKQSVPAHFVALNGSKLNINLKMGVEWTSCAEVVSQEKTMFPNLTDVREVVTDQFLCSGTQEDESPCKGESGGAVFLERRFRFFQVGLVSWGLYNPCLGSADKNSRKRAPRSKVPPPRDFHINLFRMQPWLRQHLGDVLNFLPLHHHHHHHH
Briefly: SPR, KD relative to WT C2.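 Further: biacore SPR at 37 °C, anti-C2 mAbs captured via immobilised goat anti-human IgG, C2 alanine or serine surface mutants as analytes, 1:1 model fitted, double-referenced sensograms.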

In the next experiment the target is T4, human C2 G427A (human, UniProt P06681 21-752).
T4 sequence: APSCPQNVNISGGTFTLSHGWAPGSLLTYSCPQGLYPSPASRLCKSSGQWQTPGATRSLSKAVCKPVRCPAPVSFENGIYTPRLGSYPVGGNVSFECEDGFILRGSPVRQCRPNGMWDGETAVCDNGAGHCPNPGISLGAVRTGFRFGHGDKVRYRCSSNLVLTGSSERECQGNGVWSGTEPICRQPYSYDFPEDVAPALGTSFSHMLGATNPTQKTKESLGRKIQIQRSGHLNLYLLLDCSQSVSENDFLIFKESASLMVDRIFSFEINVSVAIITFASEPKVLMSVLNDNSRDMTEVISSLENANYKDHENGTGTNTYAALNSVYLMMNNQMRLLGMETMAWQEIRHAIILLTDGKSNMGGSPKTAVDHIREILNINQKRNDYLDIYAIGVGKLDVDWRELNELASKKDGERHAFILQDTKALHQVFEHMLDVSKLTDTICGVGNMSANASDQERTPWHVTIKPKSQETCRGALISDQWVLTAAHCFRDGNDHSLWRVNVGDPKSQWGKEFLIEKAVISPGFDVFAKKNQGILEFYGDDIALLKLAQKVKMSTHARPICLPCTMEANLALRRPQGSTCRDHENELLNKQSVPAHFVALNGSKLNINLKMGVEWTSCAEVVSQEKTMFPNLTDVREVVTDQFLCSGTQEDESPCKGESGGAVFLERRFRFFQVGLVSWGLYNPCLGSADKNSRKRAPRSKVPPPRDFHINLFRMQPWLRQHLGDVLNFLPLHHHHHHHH
Put plainly: SPR, KD relative to WT C2.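 Further: biacore SPR at 37 °C, anti-C2 mAbs captured via immobilised goat anti-human IgG, C2 alanine or serine surface mutants as analytes, 1:1 model fitted, double-referenced sensograms.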

For experiment [4], the target named is T1, human complement C2. Briefly: SPR, mAb captured, C2 analyte.

B1: RF16-226 (antibody)
heavy: not shown
light: SYELTQPPSVSVSPGQTARITCSGDALTSKYVAWYQQKSGLAPLLVIYEDTRRPSGIPAKFSGSSSGSVATLTISGAHGDDEADYYCYSTDASGHQRVFGGGTKLTVLSQPKAAPSVTLFPPSSEELQANKATLVCLISDFYPGAVTVAWKADGSPVKAGVETTKPSKQSNNKYAASSYLSLTPEQWKSHRSYSCQVTHEGSTVEKTVAPTECS
Usually Kd stands for a measure of binding affinity in units of concentration. B1 came in with a dissociation constant (Kd) with human complement C2 [1] of approximately 10 nM. Moreover, the binding result in experiment [2] is given as “no binding”. In the experiment with human complement C2 [3], the “IC50, inhibition of human classical complement pathway (Wieslab assay)” value was 12.5 nM and the “IC50, inhibition of human lectin complement pathway (Wieslab assay)” value came to 5.6 nM.

B2: RF16-226 (antibody, human IgG4 S228P, lambda)
heavy: not shown
light: SYELTQPPSVSVSPGQTARITCSGDALTSKYVAWYQQKSGLAPLLVIYEDTRRPSGIPAKFSGSSSGSVATLTISGAHGDDEADYYCYSTDASGHQRVFGGGTKLTVLSQPKAAPSVTLFPPSSEELQANKATLVCLISDFYPGAVTVAWKADGSPVKAGVETTKPSKQSNNKYAASSYLSLTPEQWKSHRSYSCQVTHEGSTVEKTVAPTECS
notes: pH-dependent anti-C2 antibody from a phage display library; also called WT
Take B2: the Fold diff with human C2 T442A turned out to be 2 fold; in the experiment with human C2 G427A, 0 fold.

B3: RF16-214 (antibody, V domains shown)
VH: EVQLLESGGGLVQPGGSLRLSCAASGFTFSWYQMMWVRQAPGKGLEWVSRIYPSGGGTAYADSVKGRFTISRDNSKNTLYLQMNSLRAEDTAVYYCARDAGYGDNWGQGTLVTVSS
VL: QSALTQPPSVSVSPGQTASITCSGDKLGEKYASWYQQKAGQSPVMVIYQDRKRPSGIPERFSGSNSGNTATLTISGTQAMDEADYYCQAWDTRAVVFGGGTKLTVLG
In the experiment with human complement C2 [4], B3 yielded a Kd of 31 nM. Also, in the experiment with human complement C2 [3], the “IC50, inhibition of human classical complement pathway (Wieslab assay)” value turned out to be 18.6 nM and the “IC50, inhibition of human lectin complement pathway (Wieslab assay)” value was 7.69 nM.
